Series [1] has as its target T1, MSI2-RRM1 (Homo sapiens, UniProt Q96DH6 21-111). The series can be described thus: fluorescence polarization; 2 nM RNA; lower affinity than Numb15; Kd only in figure; FP at room temperature, 2 nM 3' FAM RNA; buffer, salt and pH not given (previously described methods). A general note: In fluorescence polarisation assays a small probe gives low polarisation when free and higher when bound to something large.

Series [2] concerns the target T1, MSI2-RRM1. Briefly: fluorescence polarization; 2 nM RNA; highest affinity of the three; Kd only in figure; FP at room temperature, 2 nM 3' FAM RNA; buffer, salt and pH not given (previously described methods).

T1 sequence (Q96DH6 21-111): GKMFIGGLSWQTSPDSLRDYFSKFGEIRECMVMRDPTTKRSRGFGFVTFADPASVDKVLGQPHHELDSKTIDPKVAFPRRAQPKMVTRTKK

B1: Numb5 (ssRNA)
RNA: GUAGU
On to B1, for which the binding result in series [1] was “binds”.

B2: Numb8 (ssRNA)
RNA: GUAGUAGU
Consider B2, for which, in series [1], the binding result is listed as “binds”.

B3: Numb15 (ssRNA)
RNA: UAGGUAGUAGUUUUA
In the case of B3, the binding result in series [2] is listed as “binds”.

The record behind these values is article PMC7079100.
